From patent US20160176955A1 (LEIDOS, published 2016)

B1: peptide 10 (amino acids 91-106 of CSP) (peptide)
peptide: HKKLKQPADGNPDP
B2: peptide 8 (amino acids 71-85 of CSP) (peptide)
peptide: SLGENDDGNNEDNEK
B3: monoclonal antibody (mAb) 5D5 (antibody, V domains shown)
VH: QVHLQQSGGEVARPGASVKLSCKASGYTFTGYGLSWVKQRTGQGLEWIGEIYPRSGNTYYNEKFKGKATLTADKSSSTAYMELRSLTSEDSAVYFCARSWGNSSFVYWGQGTLVTVSA
VL: SIVMTQTPKFLLVSAGDRVTITCKASQSVTNDVTWYQQKPGQSPKLLIYYASNRYTGVPDRFTGSGYGTDFTFTISTVQAEDLAVYFCQQDYSSPFTFGSGTKLEIKR
notes: Murine IgG1/kappa hybridoma antibody; also called 5D5 mAb; MRA-1242

Experiments:
[1] = target: B3; assay: competitive ELISA, competitor against rCSP for binding to mAb 5D5; row 0.01 µg/ml
[2] = target: B3; assay: competitive ELISA, competitor against rCSP for binding to mAb 5D5; row 0.001 µg/ml
[3] = target: B2; assay: indirect ELISA, 15-mer peptide mapping
[4] = target: B1; assay: indirect ELISA, 15-mer peptide mapping

Row | Binder | ELISA signal (name and unit not given) [1] | ELISA signal (name and unit not given) [2] | binding result [3] | binding result [4]
1 | NEDNEKLRK [peptide B] | 3.51 | 1.03 |  | 
2 | DGNNEDNEK [peptide A] | 3.57 | 1.05 |  | 
3 | B1 | 3.34 | 0.92 |  | 
4 | B2 | 3.35 | 0.952 |  | 
5 | LRKPKHKKLKQ [peptide D] | 3.45 | 0.989 |  | 
6 | NEKLRKPKHK [peptide C] | 3.49 | 0.976 |  | 
7 | B3 |  |  | no binding | no binding
8 | EDNEKLRKPKHKKLK [peptide 9 (amino acids 81-95 of CSP)] | 0.246 | 0.19 |  | 
9 | PKHKKLKQPAD [peptide E] | 3.39 | 0.925 |  | 
